Measurements reported in US9260728B2, “Terpene synthases from Santalum” (UNIVERSITY OF BRITISH COLUMBIA, priority 2009, dated 2016).

What was measured:
Format in all cases: biochemical
[1] = SaSSy enzyme assay with GPP, GC-MS product analysis; conditions: GPP as substrate, Mn^2+
Method: Enzyme assays for both recombinant isoenzyme proteins P143 and S143 were done in duplicate using GC vials as per O'Maille, P. E., et al. (“A single-vial analytical and quantitative gas chromatography-mass spectrometry assay for terpene synthases,” Anal. Biochem. 335:210-217 (2004)). […] 20 μL of substrates FPP and GPP (˜1 mg/mL) were added and the mixture gently shaken. Final enzyme concentration was 0.3 mg/mL. Vials were overlaid with 500 μL of pentane to trap volatile products and incubated at 30° C. for 2 h.
The product mixture of the SaSSy enzyme was analysed on an Agilent 6890 GC with a 5973 MSD using helium as carrier gas. Peak identification was done using an HP5-MS capillary column (30 m, 0.25 mm ID, […]). Injector temperature was 240° C., detector temperature was set at 250° C., injection volume was 1 μL and column flow rate was 1 mL/min. Oven temperature program was as follows: oven program was held for 1 min at 40° C., then ramped at 7.5° C./min to 250° C. and held. All mass spectra were detected at 70 eV in multiple ion scan mode. […]

[2] = GC-FID determination of reaction products of terpene synthases from FPP with magnesium or manganese
Method: Enzyme assays for all recombinant proteins were done in triplicate using the GC vial method described by O'Maille et al. (Anal. Biochem. 335:[…] (2004). For enzyme assays where only product identification was needed, 10 μg of protein was used in a final volume of 500 μL of reaction buffer (25 mM HEPES, 10% glycerol, 5 mM DTT and 10 mM of either Mg^2+ or Mn^2+. Substrates (FPP and GPP) were added to a final reaction concentration of 100 μM. Vials were overlaid with 500 μL of hexane to trap volatile products and incubated at 30° C. for 2 h. Mixtures were vortexed for 1 min to extract all volatiles and the vials were centrifuged to separate the organic layer.
Product mixtures were analysed by GC-MS in scan mode for product identification. A standard containing the three santalenes and α-trans-bergamotene was prepared by flash chromatography of 2 mL of neat S. album oil over silica and eluted in hexane. A final yield of 25 mg was resuspended in EtOAc and purity was confirmed by GC-FID with conditions described below. All mass spectra were compared to the NIST 2005 library and the literature. Retention indices were determined for all compounds using an n-alkane standard and compared to the literature (R. P. Adams, “Identification of essential oil components by gas chromatography/mass spectrometry,” Allured Publishing Corporation, Carol Stream, Ill. (1995)).
(§1) GC-FID was performed on a Shimadzu GC2010 with a 30 m 0.25 mm ID, 0.25 μm film DB-WAX column with He as the carrier gas. Splitless injection (2 μL) was used for all analyses. Conditions were as follows: injector 200° C., detector 250° C., column flow rate 1 mL/min. Oven program: 40° C. for 3 min, then 8° C./min to 180° C., held 5 min, then 10° C./min to 220° C., held 10 min. Needle height was adjusted to only draw from the upper organic layer of all sample vials. GC-MS was performed on a Shimadzu GC2010 with the same DB-WAX column and using He as the carrier gas. Conditions were as follows: injector 200° C., MS interface 240° C., ion source 200° C. Oven program: 40° C. for 3 min, then 8° C./min to 180° C., held 5 min, then 10° C./min to 220° C., held 10 min. Solvent cut time was set to 5 min. For product identification, total ion monitoring was used, scanning from m/z 45 to m/z 300. For kinetic assays, single ion monitoring of the sesquiterpene base ions m/z 91, 93 and 94 were used. Likewise monoterpene base ions (m/z 69, 71 and 93) were monitored. An internal standard (isobutyl benzene, 30 μM) was added to the hexane used to overlay each reaction. Detector response factors were calculated based on the santalene standard prepared earlier and used to determine the product concentrations for kinetic analysis.

[3] = SaSSy enzyme assay with FPP, GC-MS product analysis
Method: Enzyme assays for both recombinant isoenzyme proteins P143 and S143 were done in duplicate using GC vials as per O'Maille, P. E., et al. (“A single-vial analytical and quantitative gas chromatography-mass spectrometry assay for terpene synthases,” Anal. Biochem. 335:210-217 (2004)). For each assay, 20 μL of protein (8 mg/mL) was added to 450 μL of reaction buffer containing 25 mM HEPES, 10% glycerol, 5 mM DTT and 10 mM of Mg^2+. 20 μL of substrates FPP and GPP (˜1 mg/mL) were added and the mixture gently shaken. Final enzyme concentration was 0.3 mg/mL. Vials were overlaid with 500 μL of pentane to trap volatile products and incubated at 30° C. for 2 h.
The product mixture of the SaSSy enzyme was analysed on an Agilent 6890 GC with a 5973 MSD using helium as carrier gas. Peak identification was done using an HP5-MS capillary column (30 m, 0.25 mm ID, […]). Injector temperature was 240° C., detector temperature was set at 250° C., injection volume was 1 μL and column flow rate was 1 mL/min. Oven temperature program was as follows: oven program was held for 1 min at 40° C., then ramped at 7.5° C./min to 250° C. and held. All mass spectra were detected at 70 eV in multiple ion scan mode.
The identities of products from SaSSy incubations were confirmed by comparison of mass spectra retention times to authentic sandalwood oil in the NIST 2005 library, see publications by Adams, R. P. (“Identification of essential oil components by gas chromatography/mass spectrometry,” Allured Publishing Corporation, Carol Stream, Ill. (1995)) and MassFinder (www.massfinder.com).
The mass spectrum of the four compounds produced by the SaSSy enzyme (shown in FIG. 2A) are the same as those of natural β-santalene produced in sandalwood trees (see Adams (1995), cited above, for comparison profiles).

[4] = GC-FID determination of reaction products of terpene synthases from FPP with magnesium or manganese; remark: listed apart in the source
[5] = Steady-state enzyme kinetic assays
Method: For determination of steady-state enzyme kinetic constants, conditions were as described previously except the enzyme concentration was kept at 10 nM. Substrate concentrations ranged from 1 uM to 100 uM, and reactions were incubated at 30° C. for exactly 5 mins. Reactions were quenched by the addition of 500 μL 0.5 M EDTA, pH 8.0 and vortexed as above.
as §1

B1: SaSSy: santalene synthase (terpene synthase) from Santalum album, gene SEQ ID NO:1, protein SEQ ID NO:2 (protein, listed as Santalum album)
chain: MDSSTATAMTAPFIDPTDHVNLKTDTDASENRRMGNYKPSIWNYDFLQSLATHHNIVEERHLKLAEKLKGQVKFMFGAPMEPLAKLELVDVVQRLGLNHLFETEIKEALFSIYKDGSNGWWFGHLHATSLRFRLLRQCGLFIPQDVFKTFQNKTGEFDMKLCDNVKGLLSLYEASYLGWKGENILDEAKAFTTKCLKSAWENISEKWLAKRVKHALALPLHWRVPRIEARWFIEAYEQEANMNPTLLKLAKLDFNMVQSIHQKEIGELARWWVTTGLDKLAFARNNLLQSYMWSCAIASDPKFKLARETIVEIGSVLTVVDDGYDVYGSIDELDLYTSSVERWSCVEIDKLPNTLKLIFMSMFNKTNEVGLRVQHERGYNSIPTFIKAWVEQCKSYQKEARWFHGGHTPPLEEYSLNGLVSIGFPLLLITGYVAIAENEAALDKVHPLPDLLHYSSLLSRLINDIGTSPDEMARGDNLKSIHCYMNETGASEEVAREHIKGVIEENWKILNQCCFDQSQFQEPFITFNLNSVRGSHFFYEFGDGFGVTDSWTKVDMKSVLIDPIPLGEE
modifications: SaSSy Protein
[1]
  products formed: a mixture of α-pinene, camphene, limonene and α-terpinolene, along with other monoterpene products
[2]; FPP Mg, mean
  E-β-farnesene among reaction products (GC-FID): 1.7
  Z-β-farnesene among reaction products (GC-FID): 0.8
  epi-β-santalene among reaction products (GC-FID): 4.7
  α-E-bergamotene among reaction products (GC-FID): 16.0
  α-santalene among reaction products (GC-FID): 45.3
  β-santalene among reaction products (GC-FID): 31.5
[2]; FPP Mg, replicate 1
  E-β-farnesene among reaction products (GC-FID): 1.7
  Z-β-farnesene among reaction products (GC-FID): 0.7
  epi-β-santalene among reaction products (GC-FID): 4.6
  α-E-bergamotene among reaction products (GC-FID): 16.3
  α-santalene among reaction products (GC-FID): 46.4
  β-santalene among reaction products (GC-FID): 30.4
[2]; FPP Mg, replicate 2
  E-β-farnesene among reaction products (GC-FID): 1.7
  Z-β-farnesene among reaction products (GC-FID): 1.0
  epi-β-santalene among reaction products (GC-FID): 5.1
  α-E-bergamotene among reaction products (GC-FID): 15.3
  α-santalene among reaction products (GC-FID): 43.8
  β-santalene among reaction products (GC-FID): 33.1
[2]; FPP Mg, replicate 3
  E-β-farnesene among reaction products (GC-FID): 1.7
  Z-β-farnesene among reaction products (GC-FID): 0.7
  epi-β-santalene among reaction products (GC-FID): 4.3
  α-E-bergamotene among reaction products (GC-FID): 16.4
  α-santalene among reaction products (GC-FID): 45.6
  β-santalene among reaction products (GC-FID): 31.2
[2]; FPP Mn, mean
  E-β-farnesene among reaction products (GC-FID): 7.6
  Z-β-farnesene among reaction products (GC-FID): 0.5
  epi-β-santalene among reaction products (GC-FID): 0.7
  α-E-bergamotene among reaction products (GC-FID): 74.7
  α-santalene among reaction products (GC-FID): 9.8
  β-santalene among reaction products (GC-FID): 6.6
[2]; FPP Mn, replicate 1
  E-β-farnesene among reaction products (GC-FID): 7.4
  Z-β-farnesene among reaction products (GC-FID): 0.6
  epi-β-santalene among reaction products (GC-FID): 0.9
  α-E-bergamotene among reaction products (GC-FID): 75.7
  α-santalene among reaction products (GC-FID): 9.5
  β-santalene among reaction products (GC-FID): 6.0
[2]; FPP Mn, replicate 2
  E-β-farnesene among reaction products (GC-FID): 8.0
  Z-β-farnesene among reaction products (GC-FID): 0.5
  epi-β-santalene among reaction products (GC-FID): 0.8
  α-E-bergamotene among reaction products (GC-FID): 73.4
  α-santalene among reaction products (GC-FID): 9.9
  β-santalene among reaction products (GC-FID): 7.3
[2]; FPP Mn, replicate 3
  E-β-farnesene among reaction products (GC-FID): 7.5
  Z-β-farnesene among reaction products (GC-FID): 0.5
  epi-β-santalene among reaction products (GC-FID): 0.5
  α-E-bergamotene among reaction products (GC-FID): 74.9
  α-santalene among reaction products (GC-FID): 10.1
  β-santalene among reaction products (GC-FID): 6.4
[2]; GC-FID
  Relative % composition in oil produced by enzyme: E-α-bergamotol: 16.0%
  Relative % composition in oil produced by enzyme: β-santalol: 31.5%
[3]; FPP, Mg^2+ buffer
  epi-β-santalene in product mixture: 4.3%
  α-santalene in product mixture: 34.7%
  α-trans-bergamotene in product mixture: 11.1%
  β-santalene in product mixture: 41.3%
[3]; four major components only
  Relative % composition in oil produced by enzyme: E-α-bergamotol: 12.1%
  Relative % composition in oil produced by enzyme: epi-β-santalol: 4.7%
  Relative % composition in oil produced by enzyme: α-santalol: 38.0%
  Relative % composition in oil produced by enzyme: β-santalol: 45.2%
[4]
  Relative % composition in oil produced by enzyme: epi-β-santalol: 4.7%
  Relative % composition in oil produced by enzyme: α-santalol: 45.3%
[5]; FPP
  Kcat: 0.0112 s⁻¹
[5]; assays using FPP
  Vmax: 0.42 µM/min
